Experimental data reported in PMC9352969 (The Journal of Biological Chemistry, 2022).

Assays:
[1] = biological target: T1, FtsL, full-length (Escherichia coli divisome transmembrane protein) (Escherichia coli, UniProt P0AEN4 1-121); experiment: pull-down
T1 sequence (looked up): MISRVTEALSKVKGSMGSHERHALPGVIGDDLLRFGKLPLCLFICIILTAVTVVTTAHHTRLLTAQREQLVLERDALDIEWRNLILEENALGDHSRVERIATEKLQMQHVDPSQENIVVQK

[2] = biological target: FtsQ, full-length (Escherichia coli divisome transmembrane protein) (Escherichia coli, UniProt P06136 1-276); experiment: pull-down
Sequence of FtsQ, full-length (Escherichia coli divisome transmembrane protein) (P06136 whole entry): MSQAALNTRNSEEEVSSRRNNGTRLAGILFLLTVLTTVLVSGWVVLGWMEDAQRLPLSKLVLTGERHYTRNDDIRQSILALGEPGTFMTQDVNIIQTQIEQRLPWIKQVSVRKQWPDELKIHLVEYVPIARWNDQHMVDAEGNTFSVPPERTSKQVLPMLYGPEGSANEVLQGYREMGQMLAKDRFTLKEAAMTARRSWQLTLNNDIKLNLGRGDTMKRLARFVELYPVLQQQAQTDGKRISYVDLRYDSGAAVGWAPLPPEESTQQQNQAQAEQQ

binding result [1]: binds | binding result [2]: binds
B1: FtsB, full-length, His-tagged (Escherichia coli divisome transmembrane protein) (natural protein, UniProt P0A6S5 1-103, looked up)
chain: MGKLTLLLLAILVWLQYSLWFGKNGIHDYTRVNDDVAAQQATNAKLKARNDQLFAEIDDLNGGQEALEERARNELSMTRPGETFYRLVPDASKRAQSAGQNNR
